This note sets out measurements from patent publication EP3470429A1 (Numab Innovation AG, dated 2019).

Numbering of substitutions follows the chain as printed. A value given as a limit tells only on which side of the number the result lay.

The target in experiment [1] is T1, human PD-L1 expressed on cells (human, UniProt Q9NZQ7 19-290). Put plainly: cell-based or functional assay.
The target of experiment [2] is T1, human PD-L1 expressed on cells. Put plainly: cell-based or functional assay. This is another data set of the same source.
The target is the same in experiment [3]. Put plainly: cell-based or functional assay. This is another data set of the same source.
The target in experiment [4] is human CD137-Fc chimeric protein (human) (UniProt Q07011). Kind of experiment: SPR Biacore T200, CD137-Fc captured by anti-human Fc. In general terms: In SPR one partner is held on a chip, and binding of the other changes the refractive index at the surface.
Experiment [5] has as its target T2, human PD-L1-Fc chimeric protein (human, UniProt Q9NZQ7 19-238).
T2 construct: not shown: Fc part, captured by an anti-human IgG Fc antibody
Put plainly: SPR Biacore T200, PD-L1-Fc captured by anti-human Fc.

Experiment [6] deals with T1, human PD-L1 expressed on cells. Kind of experiment: cell-based or functional assay. The source holds these as a separate data set.
The target of experiment [7] is T3, mouse serum albumin (mouse, UniProt P07724 25-608).
T3 construct: also called MSA
Kind of experiment: assay not given.

The target of experiment [8] is T4, human serum albumin (human, UniProt P02768 25-609).
T4 construct: also called HSA; human SA
Put plainly: SPR Biacore T200, SA amine-coupled to CM5 chip, pH 5.5.

The target of experiment [9] is T5, recombinant human PDL1 extracellular domain (human, UniProt Q9NZQ7 19-238).
T5 construct: also called hPDL1; hPDL1 ECD
Put plainly: competition ELISA, PD-1 coated, biotinylated PD-L1 in solution, with HSA.

T3 sequence (P07724 25-608 limits assumed): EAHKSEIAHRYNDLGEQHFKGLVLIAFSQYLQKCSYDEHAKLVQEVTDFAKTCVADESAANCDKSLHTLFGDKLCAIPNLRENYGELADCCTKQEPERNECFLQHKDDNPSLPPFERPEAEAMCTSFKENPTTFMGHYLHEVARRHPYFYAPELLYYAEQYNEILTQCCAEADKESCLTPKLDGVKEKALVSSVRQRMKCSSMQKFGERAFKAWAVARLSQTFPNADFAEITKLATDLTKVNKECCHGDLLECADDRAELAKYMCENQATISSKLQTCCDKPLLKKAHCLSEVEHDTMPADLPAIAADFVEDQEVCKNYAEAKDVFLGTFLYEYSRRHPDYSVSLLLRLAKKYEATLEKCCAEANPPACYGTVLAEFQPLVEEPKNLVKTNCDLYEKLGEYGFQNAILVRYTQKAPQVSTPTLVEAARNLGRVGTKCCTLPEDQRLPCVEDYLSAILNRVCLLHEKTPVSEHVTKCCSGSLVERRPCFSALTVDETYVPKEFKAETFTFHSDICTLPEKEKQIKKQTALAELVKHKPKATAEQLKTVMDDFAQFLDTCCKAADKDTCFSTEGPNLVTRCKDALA
Sequence of human CD137-Fc chimeric protein (human) (Q07011 24-186 limits assumed, change not shown): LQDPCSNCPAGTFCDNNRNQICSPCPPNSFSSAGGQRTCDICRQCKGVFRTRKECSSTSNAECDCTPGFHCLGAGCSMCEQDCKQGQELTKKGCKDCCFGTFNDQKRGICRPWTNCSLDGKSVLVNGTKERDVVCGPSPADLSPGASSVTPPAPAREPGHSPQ

B1: PRO997 (scFv)
scFv: DIQMTQSPSSLSASVGDRVTITCQASQSIGTYLAWYQQKPGKAPKLLIYRAFILASGVPSRFSGSGSGTDFTLTISSLQPEDFATYYCQSNFYSDSTTIGPNAFGTGTKVTVLGGGGGSGGGGSGGGGSGGGGSQVQLQESGPGLVKPSETLSLTCKVSGFSFNSDYWIYWIRQPPGKGLEWIGSIYGGSSGNTQYASWAQGRVTISVDSSKNQFSLKLSSVTAADTAVYYCARGYVDYGGATDLWGQGTLVTVSS
Turning to B1, the “IC50 (ng/ml), NF-AT Potency assay” value in experiment [1] came to 11.1 ng/mL. Besides, the “EC50 in ng/ml of IL-2 secretion, PBMC assay using SEA stimulation” value in experiment [2] is 40.9 ng/mL.

B2: PRO885 (bispecific antibody)
chain: DIQMTQSPSSLSASVGDRVTITCQASQSINDYLAWYQQKPGKAPKLLIYKASTLASGVPSRFSGSGSGTDFTLTISSLQPEDFATYYCQQGYIITDIDNVFGTGTKVTVLGGGGGSQVQLQESGPGLVKPSETLSLTCKVSGFSFSNSYWICWIRQPPGKGLEWIGCTFVGSSDSTYYANWAKGRVTISVDSSKNQFSLKLSSVTAADTAVYYCARHPSDAVYGYANNLWGQGTLVTVSSGGGGSGGGGSGGGGSGGGGSIQMTQSPSSLSASVGDRVTITCQASQSINNVLAWYQQKPGKAPKLLIYRASTLASGVPSRFSGSGSGTDFTLTISSLQPEDFATYYCQSSYGNYGDFGTGTKVTVLGGGGGSQVQLQESGPGLVKPSETLSLTCKVSGFSFSSGYDMCWIRQPPGKGLEWIGCVVAGSVDITYYASWAKGRVTISVDSSKNQFSLKLSSVTAADTAVYYCARKDAYSDAFNLWGQGTLVTVSS
Turning to B2, the “IC50 (ng/ml), NF-AT Potency assay” value in [1] turned out to be 137 ng/mL. In [3], the “EC50 (ng/ml) of IL-2 secretion, PBMC with CHO cells expressing PD-L1; 1 ug/ml anti-CD3, 50000 CHO cells/well” value came to 12.8 ng/mL; the “EC50 (ng/ml) of IL-2 secretion, PBMC with CHO cells expressing PD-L1; 1 ug/ml anti-CD3, 100000 CHO cells/well” value came to 86.2 ng/mL; the “EC50 (ng/ml) of IL-2 secretion, PBMC with CHO cells expressing PD-L1; 1 ug/ml anti-CD3, 200000 CHO cells/well” value was determined as 80.6 ng/mL; the “EC50 (ng/ml) of IL-2 secretion, PBMC with CHO cells expressing PD-L1; 2 ug/ml anti-CD3, 50000 CHO cells/well” value is 52 ng/mL. For the same molecule, in experiment [3], the “EC50 (ng/ml) of IL-2 secretion, PBMC with CHO cells expressing PD-L1; 2 ug/ml anti-CD3, 100000 CHO cells/well” value is 41.9 ng/mL and the “EC50 (ng/ml) of IL-2 secretion, PBMC with CHO cells expressing PD-L1; 2 ug/ml anti-CD3, 200000 CHO cells/well” value worked out at 30.1 ng/mL. Further, the “EC50 in ng/ml of IL-2 secretion, PBMC assay using SEA stimulation” value in experiment [2] amounted to 39.9 ng/mL.

B3: PRO1124 (bispecific antibody)
chain: B2 chain with V140A, I154V, V190K, F197V, Y213F, I261L, A302P
notes: also called 38-02-A04 sc06 Full scDb-i/33_03_G02 sc01 scDb-o
In experiment [4], B3 returned a fold improvement of affinity compared to PRO885 of over 200 fold. Also, the binding result in [5] was “binds”.

B4: PRO1126 (bispecific antibody)
chain: B2 chain with I2F, M4L, A43S, V374S, V396A, I410V, G422A, V446K, F453V, Y469F
Consider B4, for which, in experiment [6], the “IC50, NFAT reporter gene assay” value worked out at 0.0481 µg/mL and the “fold improvement of neutralization potency against PRO885” value was 3 fold. In addition, in [5], the fold improvement in affinity compared to the CDR graft (PRO885) was 20 fold.

B5: PRO1057 (other)
chain: DIQMTQSPSSLSASVGDRVTITCQASQSINDYLAWYQQKPGKAPKLLIYKASTLASGVPSRFSGSGSGTDFTLTISSLQPEDFATYYCQQGYIITDIDNVFGTGTKVTVLGGGGGSQVQLQESGPGLVKPSETLSLTCKVSGFSFSNSYWICWIRQPPGKGLEWIGCTFVGSSDSTYYANWAKGRVTISVDSSKNQFSLKLSSVTAADTAVYYCARHPSDAVYGYANNLWGQGTLVTVSSGGGGSGGGGSGGGGSGGGGSIQMTQSPSSLSASVGDRVTITCQASQSINNVLAWYQQKPGKAPKLLIYRASTLASGVPSRFSGSGSGTDFTLTISSLQPEDFATYYCQSSYGNYGDFGTGTKVTVLGGGGGSQVQLQESGPGLVKPSETLSLTCKVSGFSFSSGYDMCWIRQPPGKGLEWIGCVVAGSVDITYYASWAKGRVTISVDSSKNQFSLKLSSVTAADTAVYYCARKDAYSDAFNLWGQGTLVTVSSGGGGSGGGGSVVMTQSPSSLSASVGDRVTITCQASQIISSRSAWYQQKPGQPPKLLIYQASKLASGVPSRFSGSGSGTDFTLTISSLQPEDFATYYCQCTYIDSNFGAFGGGTKLTVLGGGGGSGGGGSGGGGSGGGGSEVQLVESGGGLVQPGGSLRLSCAASGFSFSSSYWICWVRQAPGKGLEWVGCVFTGDGTTYYASWAKGRFTISRDNSKNTVYLQMNSLRAEDTATYFCARPVSVYYYGMDLWGQGTLVTVSS
notes: also called 38_02_A04 sc01 scDb-i/33-03-G02 sc01 scDb-o/mxr HSA (23-13-A01-sc03, sk17sh4)
Turning to B5, in experiment [1], the “IC50 (ng/ml), NF-AT Potency assay, with HSA” value turned out to be 665 ng/mL. For the same molecule, the binding result in experiment [7] and in experiment [8] was “binds” throughout. In addition, the “fold higher IC50 in presence of human serum albumin” value in [9] is about 2 fold.
